One assay has as its target T1, Strep-MspA (Mycolicibacterium smegmatis (strain …, UniProt A0QR29 28-211)).
T1 construct: Subunit co-expressed with 6*His-Spycatcher003-MspA; Called simply MspA where the 1:7 complex is described
The assay can be described thus: co-expression, Strep column co-purification, nickel column imidazole gradient and ion exchange separation. As to the method: In the present application, an MspA octamer which only contains one molecule of Spycatcher003 was obtained through the following method. First, the bacterial cells co-expressing 6*His-Spycatcher003-MspA and Strep-MspA obtained in the above step 2 (2) were disrupted by high pressure (Lysis Buffer: 150 mM NaCl, 20 mM Tris, 1% DDM) and purified by Strep column (Wash Buffer: 150 mM NaCl, 20 mM Tris, 0.05% Tween 20; Elution buffer: 150 mM NaCl, 20 mM Tris, 10 mM desthiobiotin) to obtain complexes with different ratios of the two proteins. […] From this, the Spycatcher003-labeled MspA octamer was obtained.

In assay [1] the target is T2, Spycatcher003-MspA(MspA)7 (Mycolicibacterium smegmatis (strain …, UniProt A0QR29 28-211)).
T2 construct: Octamer of one Spycatcher003-MspA and seven Strep-MspA subunits, co-expressed in E. coli; also called Spycatcher003-labeled MspA octamer; MspA octamer formed by Spycatcher003-MspA and MspA in a ratio of 1:7
The assay can be described thus: mixed 1:1.2 (octamer:Spytag003-DDA), 25 C 30 min, covalent Spytag003/Spycatcher003 coupling; Superose 6 Increase size exclusion chromatography. As to the method:
The Spycatcher003-labeled MspA octamer obtained in the above step 4 was mixed with the Spytag003-DDA obtained in the above step 3 at a ratio of 1:1.2, and reacted at 25° C. for 30 minutes, the Superose 6 increase is used for size exclusion chromatography (Purification Buffer: 150 mM NaCl, 20 mM Tris, 0.05% Tween20) to remove excess Spytag003-DDA protein, and the DDA-Spytag/Spycatcher-MspA complex was collected.
On the technique in general: In gel filtration, larger molecules generally elute earlier.

B1: Spycatcher003-MspA (other)
chain: MVTTLSGLSGEQGPSGDMTTEEDSATHIKFSKRDEDGRELAGATMELRDSSGKTISTWISDGHVKDFYLYPGKYTFVETAAPDGYEVATPIEFTVNEDGQVTVDGEATEGDAHTGGSGGSGGSGLDNELSLVDGQDRTLTVQQWDTFLNGVFPLDRNRLTREWFHSGRAKYIVAGPGADEFEGTLELGYQIGFPWSLGVGINFSYTTPNILIDDGDITAPPFGLNSVITPNLFPGVSISADLGNGPGIQEVATFSVDVSGAEGGVAVSNAHGTVTGAAGGVLLRPFARLIASTGDSVTTYGEPWNMN
notes: Subunit expressed as 6*His-Spycatcher003-MspA; also called 6*His-Spycatcher003-MspA
Consider B1, for which the binding result with Strep-MspA was “binds”.

B2: Spytag003-DDA (enzyme)
chain: RGVPHIVMVDAYKRYKGGSGGSGGSGGSGGSGGSMTFDDLTEGQKNAFNIVMKAIKEKKHHVTINGPAGTGKTTLTKFIIEALISTGGTGIILAAPTHAAKKILSKLSGKEASTIHSILKINPVTYEENVLFEQKEVPDLAKCRVLICDEVSMYDRKLFKILLSTIPPWCTIIGIGDNKQIRPVEPGENTAYISPFFTHKDFYQCELTEVKRSNAPIIDVATDVRNGKWNYDKVVDGHGVRGFTGDTALRDFMVNYFSIVKSLDDLFENRVMAFTNKSVDKLNSIIRKKIFETDKDFIVGEIIVMQEPLFKTYKIDGKPVSEIIFNNGQLVRIIEAEYTSTFVKARGVPGEYLIRHWDLTVETYGDDEYYREKIKIISSDEELYKFNLFLAKTAETYKNWNKGGKAPWSDFWDAKSQFSKVKALPASTFHKAQGMSVDRAFIYTPCIHYADVELAQQLLYVGVTRGRYDVFYV
notes: Expressed from pET.28a(+)-6*His-Spytag003-DDA; also called 6*His-Spytag003-DDA; motor protein Spytag003-DDA
On to B2, for which the binding result in assay [1] is reported as “binds”.
